This is an account of results in the supplement of paper PMC9942255.

The subject of the data set is Bacillus subtilis DB104 (SP-AmyQ fusion secretion). Briefly: AmyQ secretion efficiency, weighted average sort bin (1 = best secretion, 10 = worst) (bin number (weighted average, 1-10)); higher = lower secretion efficiency. In short, it runs like this: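 Secretion score gives the read-frequency-weighted average bin number, normalised to beads per bin, with low-abundance sequences left out. A B. subtilis DB104 library expressing mature AmyQ fused to designed signal peptides, integrated at amyE, was encapsulated with fluorescein-starch at about 0.3 cells per ~65 nL alginate bead. Beads were grown about 13 h at room temperature, stained with nile red, and the occupied ones were sorted by large-particle flow cytometry into 10 equally populated bins by green/red fluorescence ratio before the amplicons from each bin were Illumina-sequenced.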

The sequence MKKKLAAGLTASAIVGTTLVVTPFEAATI returned an AmyQ secretion efficiency of 5.7.
Regarding MKKIWIGMLAAAVLLLMVPKVGLADAA, the AmyQ secretion efficiency came out at 3.24.
In the case of MKKAFLVFLSVVLVTTVFLVKQQESVAQTKQL, the AmyQ secretion efficiency is 2.14.
Take MNLRKILLSSALSLGMLKRKAPVLATSS: the AmyQ secretion efficiency is 7.26.
Then MRFTKTRGQRQVLGLAAVFPLTAQAEKA, with 7.51; and MKRFILVLSFLSIIVKKRIQTNASPM, with 7.76; and MKKRRLIGFLVLVPALIMSGITLIEANKK, with 6.64.
For MHLIRAAGAVCLAVVLIAGCRFNEDQHQAEMENT, the AmyQ secretion efficiency came out at 6.08.
The sequence MRRKKRKVVGFLSVLGLAAVFPLTAQAEKA showed an AmyQ secretion efficiency of 2.12.
MKWMCSICCAAVLLAGGAMQAEAV gave an AmyQ secretion efficiency of 3.69.
As to MSTGTILVIASILLSFLSVLSGGHHESKAFPV, the AmyQ secretion efficiency came out at 6.64.
The sequence MKKVLMAFIICLSLILSVLAAPPSGAKEESV showed an AmyQ secretion efficiency of 3.2.
MNFKKTVVSALSISALALSVSGVASAHSD showed an AmyQ secretion efficiency of 2.93.
In the case of MKKWMAGLFLAAAVLLCLMVPQQVQGASS, the AmyQ secretion efficiency was found to be 3.15.
Regarding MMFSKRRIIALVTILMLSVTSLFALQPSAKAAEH, the AmyQ secretion efficiency worked out at 1.68.
Take MKKRLIAPMLLSAASLAFFAMSGSAQIAAY: the AmyQ secretion efficiency is 8.39.
In turn, MNKFLKSNFRFLLAAALGISLLKRSNFIKASND showed an AmyQ secretion efficiency of 6.59.
In turn, MMKKLFHSTLRKLLFFSFFGVQPIHAKKQ displayed an AmyQ secretion efficiency of 7.14.
Then MKTKTLFIFSAILTLSIFAPNTTFAQTA, with 2; and MPIKKKVMMCLAVTLVFGSMSFPTLTNDGGFKE, with 5.45; and MKLAKRVSALTPSTTLAITAKCKEL, with 7.76.
For MRFTKVRRRRKKLGLAAVFPLTAQAEKA, the AmyQ secretion efficiency is 7.25.
Take MRMLWRSLALCGLALTLAPCAQLAEP: the AmyQ secretion efficiency is 6.58.
Take MTKKAWFLPLVCVLLISGWLAPAASASKQTT: the AmyQ secretion efficiency was determined as 2.02.
In the case of MKKWIYVVLVLSIAGIGGFSSHAASS, the AmyQ secretion efficiency is 6.17.
MKRKLLSSLAISALSLGLLVSGPTTSFAAES: the AmyQ secretion efficiency is 3.9.
Sequence MKKTIMSFVAVAALSTTAFTGAHASAKEI returned an AmyQ secretion efficiency of 2.34.
MPYLKRVLLLLVTGLFMSLFAVTATDSAQTG came in with an AmyQ secretion efficiency of 6.72.
In the case of MKSKWMSGLLLVAVGFSFTQVMAHAGET, the AmyQ secretion efficiency stood at 7.06.
Sequence MKKRLIGFLVLVPALIMSGITLIEYNKK had an AmyQ secretion efficiency of 9.98.
Sequence MTMLRKIIGWILLLCIIPLFAFTVIASPKEV displayed an AmyQ secretion efficiency of 7.22.
In turn, MKRKQYSGRKLSIIVAYPIQTNASPM yielded an AmyQ secretion efficiency of 6.49.
MNKPTKQRTKLALAAGMTAAAAGGAGTIHAQQP: the AmyQ secretion efficiency came out at 6.94.
Then MKLAKRVSALTPSTTLAITIKAKEL, with 8.5; and MKWMCSICCAAVLLAGTVFLLGAAQAEAV, with 3.59.
With MNKKYSSKQGCRIFTSALFPTFSSVTAAQG, the AmyQ secretion efficiency stood at 4.96.
Next, MKKRLIGFLVLVPALIMSGITLEEANKK: 7.58.
The sequence MKKVMLATALFLGLTPAGANAARR had an AmyQ secretion efficiency of 4.33.
In turn, MRKFLLAAALGISLLASSNFIKASND registered an AmyQ secretion efficiency of 4.88.
The sequence MKKTIMSFVAVAALSTTAFRRRKKKHASAKEI displayed an AmyQ secretion efficiency of 6.72.
For MLCVMMLLFSAIASFPVSRQAKDQ, the AmyQ secretion efficiency was 7.53.
MKLAKRVSALTPSTTLAITCKAKEL: the AmyQ secretion efficiency amounted to 7.57.
Next, MKRNIFNNINLSLLSTLLIGIMLLTFAPSAFAKQD: 2.
Turning to MRNLTKTSLLLAGLCTAAQMVFVTHASADDE, the AmyQ secretion efficiency is 5.02.
With MGGGSFSIVFLILLLMLTLVVAPKEKAEAASS, the AmyQ secretion efficiency worked out at 1.53.
Turning to MKMKSGMEQAVSVLLLLSRLPVQASLTRK, the AmyQ secretion efficiency is 7.01.
The sequence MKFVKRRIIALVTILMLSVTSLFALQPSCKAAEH registered an AmyQ secretion efficiency of 2.68.
MKKFFGPIILAFILFAGAIAIPS: the AmyQ secretion efficiency amounted to 6.93.
On to MKKRITYSLLALLAVVAFAFFISSKAKAAEA, for which the AmyQ secretion efficiency is 5.19.
Then MTKLKMLSMLTVMIASLFIFSSQALAKRK, with 4.03; and MTMLRKNMSIIGWILLLCIIPLFAFTVIASGKEV, with 5.45; and MKKKRKKGGTGSAIVGTTLVVTPAEAATI, with 7.88.
MKVLLSALLLLLFAFEPSFASGKKL gave an AmyQ secretion efficiency of 5.58.
MKSCKQLIVCSLAAILLLKRKKKRSFAADS gave an AmyQ secretion efficiency of 7.68.
Then MRNLTKTSLLLAGLCTAAQSEFVTHASAEES, with 4.61.
On to MKNMSCKTSGSTTGGTSFLTIGPLAHAQNS, for which the AmyQ secretion efficiency worked out at 6.59.
Next, MLKKKWMVKRLAGCLAAGGFSYNAFATEN: 7.03; MIAYFGKCGYKYGRTRLGVLFGMQQANHG: 8.61; MRNLTKTSLLLAGLCTAAQMVFVTHTFTFVGASAEES: 7.25.
In turn, MPYLKRVLLLLVTGLFMSLFAVTATVSAQTG showed an AmyQ secretion efficiency of 1.43.
As to MKKWLKRKKSLAIAIVLFMYTKGEAKAAGM, the AmyQ secretion efficiency was determined as 7.31.
MMIKQCVICLSLLVFGTTAAHAARR had an AmyQ secretion efficiency of 5.39.
Regarding MKSKGSIMACLILFSFTITTFINTETISKFSN, the AmyQ secretion efficiency was 7.47.
Next, MKKKLAAGLTASAIVGTTLVVTPDEAATI: 5.54; MKKIMSAFVGMVLLTIFCFSPQASARRR: 6.47; MKRRTRYKKQVVGILLSLAFVLFVFSFSERHE: 6.68.
Sequence MKTLRTLCVLMILSGVIFFGLKIDRKDI gave an AmyQ secretion efficiency of 5.46.
Then MYKKFVPFRRRKKRFFVSFEMMENPHALDY, with 7.64.
MTMLLAAGIIGLLTVSIASPSFAAEK displayed an AmyQ secretion efficiency of 5.35.
In turn, MKLSVKIAGVLTVAAAAMVAFTIAFFFTAKMYATAKGN yielded an AmyQ secretion efficiency of 2.45.
MPIKKKVMMCLAVTLVFGSMSSGGFKE returned an AmyQ secretion efficiency of 5.66.
MPYLKRVLLLLVTGLFMSLFFLIAVTATASAQTG: the AmyQ secretion efficiency was determined as 1.09.
Next, MGRIKTKITILLVLLLLLAGGYTYIN: 5.32; MLKRTSFVSSLFISSAVLLSILKKKGQAHAQSA: 7.
MKKAAAVLLSLGLVFGFSYGAGHVAEYKTK came in with an AmyQ secretion efficiency of 6.37.
Then MKKFLVSLIIGTFVISVPFMANAQSD, with 1.69; and MKVCQKSIVRSGVSLIIGTFVISVPFMANAQSD, with 2.46.
Take MKKSQYFIVFICFFVLFSVHPIAAANADS: the AmyQ secretion efficiency was 4.12.
Then MKLSVKIAGVLTVAAAAMTAKMYATAAGN, with 6.91; and MFNRLFRMSSFIVCFLAALIMAFTLPNSVYAQKP, with 1.95; and MKKRLIAPMFSSLLSAASLAFFAMSGSAQAAAY, with 3.7.
In turn, MKKWMITIAMLILAGIALFVFISPPKSHKT came in with an AmyQ secretion efficiency of 5.84.
As for MKKLLAAGIIGLLTVSIASPSFAASD, the AmyQ secretion efficiency was 2.22.
Turning to MKLAKRVSALTPSTTLAITAKKKEL, the AmyQ secretion efficiency was determined as 7.78.
MKRYKQRLRVWMVFLMNWVTPDRKTAAAAVY registered an AmyQ secretion efficiency of 6.82.
For MKKRFRRRKKRAFILFAGAIAIPS, the AmyQ secretion efficiency was 6.13.
Next, MKKLLAAGIIGLLTVSIASPNFAAEK: 5.52.
Then MNLRKIRRKKKKSLGMLVSAAPVLATSS, with 7.69; and MLCVMMLLFSAIATFVVVAQAKDQ, with 6.49; and MKSRTIWTIILGALCIAVAYTLTKSQAGASSS, with 8.18.
Consider MKLKKRFLVALTMCGGLFVTPAKAVKT, for which the AmyQ secretion efficiency is 7.15.
MKKTIMSFVAVAALSTTAFQPHASAKEI showed an AmyQ secretion efficiency of 2.23.
The sequence MQRKRLLTIYIMLLGLIAWFPGAAQAEEK displayed an AmyQ secretion efficiency of 1.93.
MKKWIYVVLVLSIAGIGGFSVHAAED showed an AmyQ secretion efficiency of 5.68.
MKKKQVMLALTAAAGLGLTALHAKAAPL: the AmyQ secretion efficiency amounted to 2.9.
Then MKKWIYVVLVLSIAGIGGFSVHIASS, with 6.47.
Next, MGMKKKLSLGVASAALGLALVGGGQWAAFN: 5.94.
MIAYFGKCLLLVTIMFLGVLFGMWQANHG: the AmyQ secretion efficiency was 7.19.
For the sequence MGLGKKLSVAVAASFMSLSISLPGVQHAEG, the AmyQ secretion efficiency came to 3.41.
Next, MGLGGKLSVAVAASFMSLSISLPGVQAAEG: 1.01; MRSKKLWISLLFALTLIFAMAFIAMIAQAAGK: 2.
MKLRKVLTGSVLSLGLLVSASPAFAEEE yielded an AmyQ secretion efficiency of 2.06.
Turning to MKKRLIAPMLLSAASLAFFAMSGSAQAAAR, the AmyQ secretion efficiency is 4.69.
For MRKKTKNRLISSVLSTVVISSPGAAGASSK, the AmyQ secretion efficiency came to 3.33.
Take MKKLLSAASLAFFAMSGSAQAAAY: the AmyQ secretion efficiency was determined as 2.96.
Sequence MKLSVKIAGVLTVAAAAMTAKMYYTAKGN had an AmyQ secretion efficiency of 6.5.
As for MNKLKRLSMLTVMIASVFIFSSHILAAQY, the AmyQ secretion efficiency was 3.91.
Regarding MFNRLFRVCFLAALIMAFTLPNSIYAQKP, the AmyQ secretion efficiency amounted to 2.87.
MKLKKRVSMFLVALTMCGGLFVTPTKAVKT returned an AmyQ secretion efficiency of 3.85.
